We go through 20 sequences from the DeepSol protein solubility set.

The series in a line: soluble on expression in E. coli; label from the status in PepcDB or PDB records.
As for “MRILEKNHGKSRVRFNCTHPIKPAAWVLAANVSLLGCAYAATDENNSQKKERENNPANTTITVTASPLRHAGVTEDSGSYNTSSMSTATGLNISARETPQSVSVLTKQRMRDQNLNSVESAVNNITGISVRQFDSDRFGFTSRGMAVNNVMRDGVATFYDTRFNYGDNTLDTDMFDRIEVVRGAAGLMAGPGNPSAVINLVRKRPTQDFRGSVSAGVGSWEKWRTALDISGPLNSEGSVRGRFVTAYEDKNSFVNRYDQSKNPFYGILEIDVTPNTLFTFGADTQRTLTRGGMFGGLPLFNSAGGRTNYAQSATTASDWASAETRTQTLFSSLQHNFDNGWNIKGTFTFDNDKLRQDVMWPTGYPDPQTNIGMRPGSLSLIDGARRQQNYDIQVNGQYSLFGRQHQLGLGWNRQRQNIDNDYYLATCNATRTCPDLGDFTQPGWQYPKPVWSDKRAYGSKGRSDQSSQYVVTQLSLIDPLTLILGGRLTTWETRGDNFGTPQNARYKNEFVPYSGLTYDINRDLSVYTSYTEIFNPENRRDRNNTLLAPVSGQNYEAGLKGVAFDNSLDYSLAVFEIRQNNMPVPDTTAPRLPDNSQPYFAVDGTKTRGFEAEVSGKMTEDWNISAGYTQYNVKLPSSNTQTPVTPVTPRKVLKLFTTYTLPGQLSDLTLGGGVNWQSQIARNLSSPIGIQQIGQGSFAIYSLMSRYQFTPQLSLTVNLDNLFNQHYYTQIGQYNQYLLGAPRNVDATVRYTF”, the “soluble on expression in E. coli” value was “not soluble”. For the sequence “MRINFEKANSNHINIIFSWLKEPFIQEFWDNTQAHKDDILNFINGRTEPSSYADGKYVYWIASGNGHPFAMLMTIQETSEDEIDDIKLINLSKTGHSYGIDYMIGDKNYFGIGYGARTLIEFIDFFIKEVDPKADTFLIDPASDNPRAKHVYIKAGF”, the “soluble on expression in E. coli” value is listed as “soluble”.

On to “MRIQVNAKGAARLLSRHLWVFRRDVVSGPETPGLYPVYWGRRFLALALYNPHTDLAVRAYRFAPAEDPVAALLENLAQALARREAVLRQDPEGGYRLVHAEGDLLPGLVVDYYAGHAVVQATAHAWEGLLPQVAEALRPHVQSVLAKNDARTRELEGLPLYVRPLLGEVPERVQVQEGRVRYLVDLRAGQKTGAYLDQRENRLYMERFRGERALDVFSYAGGFALHLALGFREVVAVDSSAEALRRAEENARLNGLGNVRVLEANAFDLLRRLEKEGERFDLVVLDPPAFAKGKKDVERAYRAYKEVNLRAIKLLKEGGILATASCSHHMTEPLFYAMVAEAAQDAHRLLRVVEKRGQPFDHPVLLNHPETHYLKFAVFQVL”, for which the “soluble on expression in E. coli” value is reported as “soluble”.

Consider “MRKLAAFLGLVGLLSLGLAQSAQEILDRVEKNLSTPWQATVQGRIQGPGGEEELLARVYALPQARLFRVEFLKPGSLEGNFTVITEKEVWNYLYLTNQLVISPREKAKIQGLGFAPQGLGDLKALSEQVDLRLEGEVRLPEGMAWKLVGRSKENQGFAAMELYILKADPRPLRFVFLDEKGKVLADLKVVEFKRTNLTEAQLKRYPKDAQVVRR”, for which the “soluble on expression in E. coli” value is “soluble”.

In the case of “MRKLISTIIVSTLLIGGCSTVHKEAKHSSQSIPEEVPASQYKGQGFQPVAEKSAIAHAKKYREEYEKLGEQFFKDNFSLNVKATNVVGSGDGVEVYVHCDDHDIVFNASIPFDKEAIHEEGSMRSNDNGDTMSNMVGTVLSGFEYKAQKEKYDNLTKFFKDNEEKYQYTGFTKEAIHKTQNVGYQNEYYYLAGNVTNINNYRKYYEPLIKKDSKNFKEGMKKANEATNFKAKIEVVSTLFSTKSDFTKNNSKKDLLFLSDDLYHYKEKPENTNITLQLSEPKINSTRAFYDANNPLEYGVHKHELEHHHHHH”, the “soluble on expression in E. coli” value is “soluble”. As for “MRKSKRERQRLLQETIRENPFITDEELAEKFSVSVQTIRLDRLELSIPELRERIKNVARQSFADKVRALPLEEVIGDIIDIEPDASAISIFDVKEEHVFRRTRIARGHHLFAQANSLAVAVIHDELALTAKATIRFVRQVKEGERVVAKAKVTGKTAHGRTIVEVNSYVGQELVFSGTFEMYRSNIEKKDGDSNEYRG”, the entry is “not soluble”; as for “MRKSRLSQHKQNKLIELFVAGVTARTASKLVNVNKNTATITFIDYAYSFIKQAHIWKCLKAKLKPMKAISAVLEKANVVAVLQGKSQYSGFSNEMQGLYRRCS”, “not soluble”. The result for “MRLEECRKRLEELEAAREELLKVLREMRIHSTKSIALIHAGKVEEAEQELKKAIELLEKVKAYREYPEIYFYLCNDAMQELVEAIAFKNAISGEFTFEIDLEVTPAAFLNGFADAVGELRRYALTKLIEGDFKSAERMLEVMEKIYERLMEFTTFPDKLVSGLRKKLDVARGGIERTKSDYIAAKVARLNESLGGN” reads “not soluble”; that for “MRLEIAEKYMAEAYEYLKKGDTIQASGKAYKVAEEIVKAIKFLISKLIGQDVGVISPYRTQVRKLDQELANYKPYVEVNTVDAFQGREKDVIIFSVTATNGLRFVTNRRRLNVAFTRPRYKLIVLGNENSIMSCQMTIC”, “soluble”. As for “MRLFAINAGNFKLDGGAMFGVVPKSIWNKLNPADSNNLCTWATRCLLIENGKQLVLIDTGLGDKQDESFFRHYYRDTPQTWDTLLKPYGFHSSDITDVVLTHLHFDHVGGALEKKGDKIVPTFSNARYWSNTRHWDWAVEPNPREKASFLKDNLFPLQESGQLYFVDTQNLPFEWMDFIFVDGHTEQQMLPLITTPAEKKILYAADLLPSAGHIPMPYIMSYDVRPLVSMQEKERVFNQVLAEDWTVFLEHDLSNACISLQQTEKGIRLNNVFQISDFNLEHHHHHH”, the entry is “not soluble”; as for “MRLIEQAIEKIESGQVTEGLTALEEAAKTANHEMKYTVAETYYELGHLDKAQAIIDELLMLYPDEGGLYTFAAEILIDLNKEDEAIEMLNEIKEQDPAFLQAQLLLADLYQLQSLDEVAEQKLLKAYEVAPDEPIISFGLGEFYLERGDYIKSIPHLKRAKHGGLTNDQVNVSLKLAEAYSGSGQFEEALPHYDEGLKQKLDPHGLFGYGYTAYLLGDYVLAIEQFQALKALDPDFYDPIPVFGEGFRRGKSFRGSNGCFKRGDDRGLEHHHHHH”, “soluble”. As to “MRLPIFLLALSSASIVFSLDPVPEEYANVPKEFFEKFQAAIKSGDPVAVVDLFAPDDMLPVSGMIEAAQGIIKSFESYPTGIIERVRYEYGVIQINVRYYPNTPLLSKKTTIFKIKYENKWKGWTMVHFSDWM”, the “soluble on expression in E. coli” value was “not soluble”. Regarding “MRLSDAEILHELRHTPLKELGERAYEVKKRLHPKRITTFVVDRNINYTNICWVDCKFCAFKRKLSQEETYILSFEEIDRKIEELIAIGGTQILFQGGVHPELKIEWYENLVSHIAQKFPEITIHGFSAIEVDYIARLSKLSLKETLQRLQAAGLSSIPGAGAEILSDRVRDIIAPKKLSADRWIEVHRTAHQIGMKSTATMMFGTIEEEEDIIEHWRRIRELQEETGGFRAFILWSFQPHHTPLKAEFPHLQKSSSNRYLRLLAASRLYLDNFPNLQSSWVTQGSYIGQMALLFGANDLGSTMMEENVVSAAGARNQMNQEEMIALIKDVGELPAKRNTAYEILERY”, the “soluble on expression in E. coli” value is reported as “not soluble”. As for “MRLYMEMTNAQRLILSNQYFLMSQLDPNNANKYKRLQTIVERGYELHMRELNREFGCLPETECREIIDIMEMYHAMQESNRMLDDAARKDVDQRRLTFLGFDMATEAQLVNYVRFLVDSEGLYPQFDKGEHHFNSQMPMLAKYRRMLTTWRNCPRQYHLSGNELRQIMNA”, the entry is “not soluble”; as for “MRNAHAVEAMRVPHPVRGTVSLVEWHMARARNHINVLEENMTLLMEQAHANESLFYRLLHLQSRLVAADSLDEMLVRFHRWARDLGLAGATLRLFPDRWRLGAPSRYTHLALNRQAFEPLRIQRLGQSQHYLGPLNGPELLVVLEHHHHHH”, “soluble”; as for “MRNFTRTLEPEGITEMPQEGLRFVVQHHLARRDHYDLRLEWDGAMLSWAVPKGPSYNTWDKRLAVQVEDHPLEYRHFEGTIPKGEYGGGVVMLWDEGFWEPYVDVDGGLHEGMLKFVLKGRRLKGRWALVRMKGKAGDKKDNWLLLKEKDDYVQTADGISQFTTSLEHHHHHH”, “soluble”. For “MRNRTLADLDRVVALGGGHGLGRVLSSLSSLGSRLTGIVTTTDNGGSTGRIRRSEGGIAWGDMRNCLNQLITEPSVASAMFEYRFGGNGELSGHNLGNLMLKALDHLSVRPLEAINLIRNLLKVDTHLIPMSEHPVDLMAIDDQGHEVYGEVNIDQLTTPIQELLLTPNVPATREAVHAINEADLIIIGPGSFYTSLMPILLLKEIAQALRRTPAPMVYIGNLGRELSLPAANLKLESKLAIMEQYVGKKVIDAVIVGPKVDVSAVKERIVIQEVLEASDIPYRHDRQLLHNALEKALQALGLEHHHHHH”, the “soluble on expression in E. coli” value was “not soluble”.

In the case of “MRNVFCIGELLIDFVCRNTNVSLVNGSNFEKKAGGAPANVAAAITKLGGHATFMGQVGNDPFGEFLEQTLQHAHVDTSMLIKDKQTTLAFVSIDQNGERDFTFMRGADGEYHFNSIDLSKIKTNDLIHFGSATALLSSPLKDTYFQLLQHARESGQFISFDPNYRNALITNTEQFIQDCLTFIKHAHFVKVSQEEAIMLSKESDLQQSALKLLNHGAKAVAITLGKDGTLLATKDKQTIVPSISIQQVDTTGAGDAFVGAMLYQIAKSEQMFLHNFEGLTTFISFANKVGALTCTNYGAISSLPSLTDVKAYE”, the “soluble on expression in E. coli” value is given as “not soluble”.

With “MRPKKDGLEDFLRLTPEIKKQLGSLVSDYCNVLNKEFTAGSVEITLRSYKICKAFINEAKAHGREWGGLMATLNICNFWAILRNNRVRRRAENAGNDACSIACPIVMRYVLDHLIVVTDRFFIQAPSNRVMIPATIGTAMYKLLKHSRVRAYTYSKVLGVDRAAIMASGKQVVEHLNRMEKEGLLSSKFKAFCKWVFTYPVLEEMFQTMVSSKTGHLTDDVKDVRALIKTLPRASYSSHAGQRSYVSGVLPACLLSTKSKAVETPILVSGADRMDEELMGNDGGASHTEARYSESGQFHAFTDELESLPSPTMPLKPGAQSADCGDSSSSSSDSGNSDTEQSEREEARAEAPRLRAPKSRRTSRPNRGQTPCPSNAAEPEQPWIAAVHQESDERPIFPHPSKPTFLPPVKRKKGLRDSREGMFLPKPEAGSAISDVFEGREVCQPKRIRPFHPPGSPWANRPLPASLAPTPTGPVHEPVGSLTPAPVPQPLDPAPAVTPEASHLLEDPDEETSQAVKALREMADTVIPQKEEAAICGQMDLSHPPPRGHLDELTTTLESMTEDLNLDSPLTPELNEILDTFLNDECLLHAMHISTGLSIFDTSLF”, the “soluble on expression in E. coli” value is reported as “not soluble”. With “MRPLLLLALLGWLLLAEAKGDAKPEDNLLVLTVATKETEGFRRFKRSAQFFNYKIQALGLGEDWNVEKGTSAGGGQKVRLLKKALEKHADKEDLVILFTDSYDVLFASGPRELLKKFRQSRSQVVFSAEELIYPDRRLETKYPVVSDGKRFLGSGGFIGYAPNLSKLVAEWEGQDSDSDQLFYTKIFLDPEKREQINITLDHRCRIFQNLDGALDEVVLKFEMGHVRARNLAYDTLPVLIHGNGPTKLQLNYLGNYIPRFWTFETGCTVCDEGLRSLKGIGDEALPTVLVGVFIEQPTPFVSLFFQRLLRLHYPQKHMRLFIHNHEQHHKAQVEEFLAQHGSEYQSVKLVGPEVRMANADARNMGADLCRQDRSCTYYFSVDADVALTEPNSLRLLIQQNKNVIAPLMTRHGRLWSNFWGALSADGYYARSEDYVDIVQGRRVGVWNVPYISNIYLIKGSALRGELQSSDLFHHSKLDPDMAFCANIRQQDVFMFLTNRHTLGHLLSLDSYRTTHLHNDLWEVFSNPEDWKEKYIHQNYTKALAGKLVETPCPDVYWFPIFTEVACDELVEEMEHFGQWSLGNNKDNRIQGGYENVPTIDIHMNQIGFEREWHKFLLEYIAPMTEKLYPGYYTRAQFDLAFVVRYKPDEQPSLMPHHDASTFTINIALNRVGVDYEGGGCRFLRYNCSIRAPRKGWTLMHPGRLTHYHEGLPTTRGTRYIAVSFVDP”, the “soluble on expression in E. coli” value is recorded as “not soluble”.
